Laboratory results published in patent publication US20110091994A1, “Methods for Screening Compounds for Treating and/or Preventing an Hepatitis C Virus Infection” (priority 2008, published 2011).
Where two headings read alike, the source gives them in different places.

B1: C16orf7 (protein, UniProt Q9Y2B5 1-631, looked up)
VPS9 domain-containing …: MAAAAGDGTVKPLQSAMKLANGAIELDTGNRPREAYTEYLRSIHYISQVLLEEVETTKEAGETVPPDTSKMLKLAQQCLERAQSTAAKLGKTRLKPTMPAAAPIPQPAGRHRRVYSDEGGKLSPFLPPEIFQKLQGAESQSCKKELTPLEEASLQNQKLKAAYEARMARLDPSQAMQKTSLTLSLQRQMMENLVIAKAREETLQRKMEERRLRLQEAANRRFCSQVALTPEEREQRALYAAILEYEQDHDWPKHWKAKLKRNPGDLSLVTSLVSHLLSLPDHPIAQLLRRLQCSVYSALYPAVSRAAAPAPGCCPPTPNPGSRRLRPSQSLHCMLSPPEPSAAPRPQDSPPTPPLQPGPVGSPSPLGDTASGLPDKDSSFEDLEQFLGTSERQGRGRGVQPEPQLQQLKTAVEEIHNAVDRLLSLTLLAFEGLNTAASKDRCLACIEEPFFSPLWPLLLALYRSVHRAREAALSRSMELYRNAPPTAIGIPTKLLPQNPEAKGATGYPYCAAAQELGLLVLESCPQKKLECIVRTLRIICVCAEDYCPTPEATPQAGPPPIAAAAIGADDLLPILSFVVLRSGLPQLVSECAALEEFIHEGYLIGEEGYCLTSLQSALSYVELLPRGGLAK
B2: TP53BP2 (protein, UniProt Q13625 1-1128, looked up)
Apoptosis-stimulating of p53 …: MMPMFLTVYLSNNEQHFTEVPVTPETICRDVVDLCKEPGESDCHLAEVWCGSERPVADNERMFDVLQRFGSQRNEVRFFLRHERPPGRDIVSGPRSQDPSLKRNGVKVPGEYRRKENGVNSPRMDLTLAELQEMASRQQQQIEAQQQLLATKEQRLKFLKQQDQRQQQQVAEQEKLKRLKEIAENQEAKLKKVRALKGHVEQKRLSNGKLVEEIEQMNNLFQQKQRELVLAVSKVEELTRQLEMLKNGRIDSHHDNQSAVAELDRLYKELQLRNKLNQEQNAKLQQQRECLNKRNSEVAVMDKRVNELRDRLWKKKAALQQKENLPVSSDGNLPQQAASAPSRVAAVGPYIQSSTMPRMPSRPELLVKPALPDGSLVIQASEGPMKIQTLPNMRSGAASQTKGSKIHPVGPDWSPSNADLFPSQGSASVPQSTGNALDQVDDGEVPLREKEKKVRPFSMFDAVDQSNAPPSFGTLRKNQSSEDILRDAQVANKNVAKVPPPVPTKPKQINLPYFGQTNQPPSDIKPDGSSQQLSTVVPSMGTKPKPAGQQPRVLLSPSIPSVGQDQTLSPGSKQESPPAAAVRPFTPQPSKDTLLPPFRKPQTVAASSIYSMYTQQQAPGKNFQQAVQSALTKTHTRGPHFSSVYGKPVIAAAQNQQQHPENIYSNSQGKPGSPEPETEPVSSVQENHENERIPRPLSPTKLLPFLSNPYRNQSDADLEALRKKLSNAPRPLKKRSSITEPEGPNGPNIQKLLYQRTTIAAMETISVPSYPSKSASVTASSESPVEIQNPYLHVEPEKEVVSLVPESLSPEDVGNASTENSDMPAPSPGLDYEPEGVPDNSPNLQNNPEEPNPEAPHVLDVYLEEYPPYPPPPYPSGEPEGPGEDSVSMRPPEITGQVSLPPGKRTNLRKTGSERIAHGMRVKFNPLALLLDSSLEGEFDLVQRIIYEVDDPSLPNDEGITALHNAVCAGHTEIVKFLVQFGVNVNAADSDGWTPLHCAASCNNVQVCKFLVESGAAVFAMTYSDMQTAADKCEEMEEGYTQCSQFLYGVQEKMGIMNKGVIYALWDYEPQNDDELPMKEGDCMTIIHREDEDEIEWWWARLNDKEGYVPRNLLGLYPRIKPRQRSLA
B3: BCL2A1 (protein, UniProt Q16548 1-175, looked up)
Bcl-2-related protein A1: MTDCEFGYIYRLAQDYLQCVLQIPQPGSGPSKTSRVLQNVAFSVQKEVEKNLKSCLDNVNVVSVDTARTLFNQVMEKEFEDGIINWGRIVTIFAFEGILIKKLLRQQIAPDVDTYKEISYFVAEFIMNNTGEWIRQNGGWENGFVKKFEPKSGWMTFLEVTGKICEMLSLLKQYC

Assays:
[1] = tested on: HCV ORFs (Gal4-DB fusions); type: binding, HCV genotype 1b, isolate con1; conditions: human protein listed by gene symbol; the value names the HCV protein it interacts with
[2] = target: T1, HCV ORFs (Gal4-DB fusions) (Hepatitis C virus genotype 1b, UniProt Q9WMX2); type: binding, HCV genotype 1b, isolate con1; conditions: human protein as prey
T1 construct: expressed in transfected cells; host or cells: Saccharomyces cerevisiae MAV203 (IMAP1) / AH109 (IMAP2)
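Further: yeast two-hybrid screens using HCV genotype 1b proteins fused to Gal4-DB as baits against prey cDNA libraries from human spleen and foetal brain, IMAP1 via transformation and IMAP2 via mating.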

Molecule	Interaction with viral protein [1]	IMAP Y2H IMAP2 (number of IST) ([2]; HCV protein NS3 as bait)	IMAP Y2H IMAP2 (number of IST) ([2]; HCV protein NS5A as bait)
B1	NS3	1	
B2	NS5A		2
B3	NS3	1	
